Experiments:
[1] = molecular target: natural CD47 on the surface of CCRF-CEM cells (UniProt Q08722); assay: flow cytometry on CCRF-CEM cells, sample at 1 ug/ml, Alexa Fluor 488 goat anti-human (H+L); blank control 30.0
[2] = molecular target: T1, human CD47-his (Sino Biological, CAT#12283-HCCH-50) (human, UniProt Q08722 19-139, limits assumed); assay: SPR (Biacore): antibody captured with human Fab capture kit on CM5 chip, human CD47-his flowed over
T1 construct: Bought protein used as analyte in Biacore; also called 人CD47-his; human CD47-his antigen; not shown: His tag of the bought protein

[3] = molecular target: human CD47-his (Sino Biological, CAT#12283-HCCH-50) (human) (UniProt Q08722); assay: SPR (Biacore), KD compared with hu167-4
[4] = molecular target: natural CD47 on the surface of CCRF-CEM cells (UniProt Q08722); assay: flow cytometry on CCRF-CEM cells, antibody at 1 ug/ml, Alexa Fluor 488 goat anti-human (H+L); blank control 30.0

flow cytometry binding signal (流式结合信号) [1] | KD fold difference (against ch-055) [2] | Kd [2] | koff [2] | kon [2] | KD fold difference (against ch-167) [2] | KD ratio against hu167-4 [3] | flow cytometry binding signal (流式结合信号) [4] | Molecule
65.1 |  |  |  |  |  |  |  | IgG4-Fc control
 | 3.5 | 0.585 nM | 0.000976 s⁻¹ | 1.67e+06 M⁻¹ s⁻¹ |  |  |  | hu055-1 (antibody, V domains shown) VH: QVQLVQSGAEVKKPGASVKVSCKASGYTFTSSYLHWVRQAPGQRLEWMGWIYPESGNTKYNERFKGRVTITRDTSASTAYMELSSLRSEDTAVYYCARRGDVFFAYWGQGTTVTVSS VL: DIVMTQSPDSLAVSLGERATINCKSSQSLLTSGKQKNYLTWYQQKPGQPPKLLIYWASTRESGVPDRFSGSGSGTDFTLTISSLQAEDVAVYYCQNDYSYPLTFGQGTKLEIK
 | 1.1 | 0.182 nM | 0.000382 s⁻¹ | 2.1e+06 M⁻¹ s⁻¹ |  |  |  | hu055-5 (antibody, V domains shown) VH: QVQLVQSGAEVKKPGASVKVSCKASGYTFTSSYLHWVRQAPGQRLDWIGWIYPESGNTKYNERFKGRATLTADTSASTAYMELSSLRSEDTAVYYCARRGDVFFAYWGQGTTVTVSS VL: DIVMTQSPDSLAVSLGERATINCKSSQSLLTSGKQKNYLTWYQQKPGQPPKLLIYWASTRESGVPDRFSGSGSGTDFTLTISSLQAEDVAVYYCQNDYSYPLTFGQGTKLEIKR
 | 3.7 | 0.617 nM | 0.000987 s⁻¹ | 1.6e+06 M⁻¹ s⁻¹ |  |  |  | hu055-8 (antibody, V domains shown) VH: QVQLVQSGAEVKKPGASVKVSCKASGYTFTSSYLHWVRQAPGQRLEWMGWIYPESGNTKYNERFKGRVTITRDTSASTAYMELSSLRSEDTAVYYCARRGDVFFAYWGQGTTVTVSS VL: DIVMTQSPDSLAVSLGERATINCKSSQSLLTSGKQKNYLTWYQQKPGQPPKLLIYWASTRESGVPERFSGSGSGTDFTLTISSLQAEDVAVYYCQNDYSYPLTFGQGTKLEIK
 | 1 | 0.167 nM | 0.000389 s⁻¹ | 2.32e+06 M⁻¹ s⁻¹ |  |  |  | chimeric antibody ch-055 (antibody, V domains shown) VH: QVLLQQSGPELVQPGASVKISCKASGYSFTSSYLHWVKQRPGQGLDWIGWIYPESGNTKYNERFKGKATLTADTSSSTAYMQLSSLTSEDSAVYYCSRRGDVFFAYWGQGTTLTVSS VL: DIVMTQSPSYLTVTAGEKVTMSCKSSQSLLTSGKQKNYLTWYQQKPGQPPKLLIYWASTRESGVPERFRGSGSGTDFTLTISSVQAEDLAVYYCQNDYSYPLTFGAGTKLELN
 |  | 0.325 nM | 0.000558 s⁻¹ | 1.72e+06 M⁻¹ s⁻¹ | 1 |  |  | chimeric antibody ch-167 (antibody, V domains shown) VH: QVQLQQPGAELVRPGSSVKLSCKASGYTFTSYWMHWVKQRPIQGLEWVGNIDPSDSETHYNQKFKDKATLTVDKSSSTAYMQLSSLTSEDSAVYYCARWGYLGRSAMDYWGQGTSVTVSS VL: DVQITQSPSYLAASPGETITINCRTSKSISKFLAWYQEKPGKTHKLLIYSGSTLQSGIPSRFSGSGSGTDFTLTISSLEPEDFAMYYCQQHNEYPWTFGGGTKLEIK
 |  |  |  |  |  | 1.3 |  | hu167-31 (antibody, V domains shown) VH: QVQLVQSGAEVKKPGASVKVSCKASGYTFTSYWMHWVRQAPGQGLEWMGNIDPSDSETHYNQKFKDRVTMTRDTSISTAYMELSRLRSDDTAVYYCARWGYLGRSAMDYWGQGTTVTVSS VL: DVQMTQSPSSLSASVGDRVTITCRTSKSISKFLAWYQQKPGKAPKLLIYSGSTLQSGVPSRFSGSGSGTDFTLTISSLQPEDFATYYCQQHNEYPWTFGGGTKVEIK
 |  |  |  |  |  | 1.2 |  | hu167-32 (antibody, V domains shown) VH: QVQLVQSGAEVKKPGASVKVSCKASGYTFTSYWMHWVRQAPGQGLEWMGNIDPSDSETHYNQKFKDRVTMTRDTSISTAYMELSRLRSDDTAVYYCARWGYLGRSAMDYWGQGTTVTVSS VL: DIQITQSPSSLSASVGDRVTITCRTSKSISKFLAWYQQKPGKAPKLLIYSGSTLQSGVPSRFSGSGSGTDFTLTISSLQPEDFATYYCQQHNEYPWTFGGGTKVEIK
 |  | 0.664 nM | 0.000991 s⁻¹ | 1.49e+06 M⁻¹ s⁻¹ | 2.04 |  |  | hu167-1 (antibody, V domains shown) VH: QVQLVQSGAEVKKPGASVKVSCKASGYTFTSYWMHWVRQAPGQGLEWMGNIDPSDSETHYNQKFKDRVTMTRDTSISTAYMELSRLRSDDTAVYYCARWGYLGRSAMDYWGQGTTVTVSS VL: DIQMTQSPSSLSASVGDRVTITCRTSKSISKFLAWYQQKPGKAPKLLIYSGSTLQSGVPSRFSGSGSGTDFTLTISSLQPEDFATYYCQQHNEYPWTFGGGTKVEIK
 |  |  |  |  |  | 0.98 | 27800 | hu167-33 (antibody, V domains shown) VH: QVQLVQSGAEVKKPGASVKVSCKASGYTFTSYWMHWVRQAPGQGLEWMGNIDPSDSETHYNQKFKDRVTMTRDTSISTAYMELSRLRSDDTAVYYCARWGYLGRSAMDYWGQGTTVTVSS VL: DVQITQSPSSLSASVGDRVTITCRTSKSISKFLAWYQQKPGKAPKLLIYSGSTLQSGVPSRFSGSGSGTDFTLTISSLQPEDFATYYCQQHNEYPWTFGGGTKVEIK
